# B1: CIT, O14578 (peptide)
# chain: VNKVWDQSSV
# B2: HTLV1-TAX1, P03409 (peptide)
# chain: SEKHFRETEV
# Molecular target: AHNAK1, Q09666
# Assay: holdup assay
# Parameters: key: below the threshold = too weak to quantify, mostly under pKd 3.1 to 4
# Conditions: plain residues with an end cap or a label only (N-terminal biotin on a linker: ttds)
# Chain of AHNAK1, Q09666 (Q09666 4-100): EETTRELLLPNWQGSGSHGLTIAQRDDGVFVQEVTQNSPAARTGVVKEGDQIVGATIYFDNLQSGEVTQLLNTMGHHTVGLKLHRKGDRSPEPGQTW
row,Binder,pKd
1,B1,below the threshold
2,B2,3.92

# Molecular target: T1, ARHGAP21, Q5T5U3
# T1 sequence (Q5T5U3 45-169, limits assumed, looked up): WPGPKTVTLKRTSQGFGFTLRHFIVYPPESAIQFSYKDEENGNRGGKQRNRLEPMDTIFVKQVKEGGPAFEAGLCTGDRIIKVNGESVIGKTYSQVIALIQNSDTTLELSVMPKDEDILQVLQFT
# Assay: holdup assay
# Parameters: key: below the threshold = too weak to quantify, mostly under pKd 3.1 to 4
# Conditions: plain residues with an end cap or a label only (N-terminal biotin on a linker: ttds)
row,Binder,pKd
1,B1,below the threshold
2,B2,below the threshold

# Molecular target: T2, DFNB31_1, Q9P202
# T2 sequence (Q9P202 135-233, limits assumed, looked up): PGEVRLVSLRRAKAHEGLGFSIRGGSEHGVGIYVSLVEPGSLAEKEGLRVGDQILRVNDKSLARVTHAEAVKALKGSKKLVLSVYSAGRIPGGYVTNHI
# Assay: holdup assay
# Parameters: key: below the threshold = too weak to quantify, mostly under pKd 3.1 to 4
# Conditions: plain residues with an end cap or a label only (N-terminal biotin on a linker: ttds)
row,Binder,pKd
1,B1,3.52
2,B2,3.96

# Molecular target: DLG2_2, Q15700
# Assay: holdup assay
# Parameters: key: below the threshold = too weak to quantify, mostly under pKd 3.1 to 4
# Conditions: plain residues with an end cap or a label only (N-terminal biotin on a linker: ttds)
# Chain of DLG2_2, Q15700 (Q15700 189-283): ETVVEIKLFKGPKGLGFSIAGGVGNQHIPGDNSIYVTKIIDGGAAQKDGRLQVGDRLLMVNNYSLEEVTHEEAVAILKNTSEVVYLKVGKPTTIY
row,Binder,pKd
1,B1,below the threshold
2,B2,5.21

# Molecular target: T3, DLG3_2, Q92796
# T3 sequence (Q92796 221-321, limits assumed, looked up): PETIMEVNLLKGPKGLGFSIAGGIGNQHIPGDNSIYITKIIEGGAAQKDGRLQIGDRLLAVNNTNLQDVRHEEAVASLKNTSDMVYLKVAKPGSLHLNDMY
# Assay: holdup assay
# Parameters: key: below the threshold = too weak to quantify, mostly under pKd 3.1 to 4
# Conditions: plain residues with an end cap or a label only (N-terminal biotin on a linker: ttds)
row,Binder,pKd
1,B1,below the threshold
2,B2,5.56

# Molecular target: T4, DLG3_3, Q92796
# T4 sequence (Q92796 374-475, limits assumed, looked up): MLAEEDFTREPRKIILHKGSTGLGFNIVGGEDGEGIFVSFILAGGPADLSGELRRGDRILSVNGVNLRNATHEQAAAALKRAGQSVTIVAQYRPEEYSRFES
# Assay: holdup assay
# Parameters: key: below the threshold = too weak to quantify, mostly under pKd 3.1 to 4
# Conditions: plain residues with an end cap or a label only (N-terminal biotin on a linker: ttds)
row,Binder,pKd
1,B1,3.7
2,B2,5.34

# Molecular target: DLG4_2, P78352
# Assay: holdup assay
# Parameters: key: below the threshold = too weak to quantify, mostly under pKd 3.1 to 4
# Conditions: plain residues with an end cap or a label only (N-terminal biotin on a linker: ttds)
# Chain of DLG4_2, P78352 (P78352 155-259): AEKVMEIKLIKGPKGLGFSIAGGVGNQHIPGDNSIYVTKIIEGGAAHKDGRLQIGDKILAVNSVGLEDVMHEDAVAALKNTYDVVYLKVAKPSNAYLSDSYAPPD
row,Binder,pKd
1,B1,below the threshold
2,B2,5.51

# Molecular target: FRMPD3, Q5JV73
# Assay: holdup assay
# Parameters: key: below the threshold = too weak to quantify, mostly under pKd 3.1 to 4
# Conditions: plain residues with an end cap or a label only (N-terminal biotin on a linker: ttds)
# Chain of FRMPD3, Q5JV73 (Q5JV73 12-100): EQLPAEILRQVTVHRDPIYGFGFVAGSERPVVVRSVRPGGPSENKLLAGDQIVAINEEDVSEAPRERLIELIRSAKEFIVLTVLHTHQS
row,Binder,pKd
1,B1,below the threshold
2,B2,below the threshold

# Molecular target: GRASP, Q7Z6J2
# Assay: holdup assay
# Parameters: key: below the threshold = too weak to quantify, mostly under pKd 3.1 to 4
# Conditions: plain residues with an end cap or a label only (N-terminal biotin on a linker: ttds)
# Chain of GRASP, Q7Z6J2 (Q7Z6J2 96-193): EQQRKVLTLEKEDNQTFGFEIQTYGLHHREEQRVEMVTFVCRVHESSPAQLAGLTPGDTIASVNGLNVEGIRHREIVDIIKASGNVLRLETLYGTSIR
row,Binder,pKd
1,B1,4.33
2,B2,below the threshold

# Molecular target: Inadl_6, Q8NI35
# Assay: holdup assay
# Parameters: key: below the threshold = too weak to quantify, mostly under pKd 3.1 to 4
# Conditions: plain residues with an end cap or a label only (N-terminal biotin on a linker: ttds)
# Chain of Inadl_6, Q8NI35 (Q8NI35 1058-1167): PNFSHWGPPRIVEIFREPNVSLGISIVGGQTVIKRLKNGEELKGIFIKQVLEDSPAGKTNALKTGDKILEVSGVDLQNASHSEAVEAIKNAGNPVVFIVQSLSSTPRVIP
row,Binder,pKd
1,B1,below the threshold
2,B2,3.69

# Molecular target: LNX1_2, Q8TBB1
# Assay: holdup assay
# Parameters: key: below the threshold = too weak to quantify, mostly under pKd 3.1 to 4
# Conditions: plain residues with an end cap or a label only (N-terminal biotin on a linker: ttds)
# Chain of LNX1_2, Q8TBB1 (Q8TBB1 371-470): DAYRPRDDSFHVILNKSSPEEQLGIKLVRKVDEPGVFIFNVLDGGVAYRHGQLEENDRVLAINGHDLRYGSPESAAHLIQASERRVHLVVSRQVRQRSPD
row,Binder,pKd
1,B1,below the threshold
2,B2,3.71

# Molecular target: T5, LRRC7, Q96NW7
# T5 sequence (Q96NW7 1440-1537, limits assumed, looked up): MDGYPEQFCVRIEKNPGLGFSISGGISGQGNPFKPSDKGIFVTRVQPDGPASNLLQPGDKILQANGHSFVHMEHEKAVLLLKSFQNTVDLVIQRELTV
# Assay: holdup assay
# Parameters: key: below the threshold = too weak to quantify, mostly under pKd 3.1 to 4
# Conditions: plain residues with an end cap or a label only (N-terminal biotin on a linker: ttds)
row,Binder,pKd
1,B1,below the threshold
2,B2,4.69

# Molecular target: T6, MPP2, Q14168
# T6 sequence (Q14168 180-250, limits assumed, looked up): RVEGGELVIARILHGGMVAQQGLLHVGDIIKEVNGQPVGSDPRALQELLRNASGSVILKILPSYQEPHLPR
# Assay: holdup assay
# Parameters: key: below the threshold = too weak to quantify, mostly under pKd 3.1 to 4
# Conditions: plain residues with an end cap or a label only (N-terminal biotin on a linker: ttds)
row,Binder,pKd
1,B1,below the threshold
2,B2,below the threshold

# Molecular target: NHERF2_2, Q15599
# Assay: holdup assay
# Parameters: key: below the threshold = too weak to quantify, mostly under pKd 3.1 to 4
# Conditions: plain residues with an end cap or a label only (N-terminal biotin on a linker: ttds)
# Chain of NHERF2_2, Q15599 (Q15599 142-238): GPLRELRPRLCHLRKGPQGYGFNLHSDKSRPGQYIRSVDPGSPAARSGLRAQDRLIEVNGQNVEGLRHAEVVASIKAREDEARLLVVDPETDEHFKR
row,Binder,pKd
1,B1,below the threshold
2,B2,below the threshold

# Molecular target: NHERF4_2, Q86UT5
# Assay: holdup assay
# Parameters: key: below the threshold = too weak to quantify, mostly under pKd 3.1 to 4
# Conditions: plain residues with an end cap or a label only (N-terminal biotin on a linker: ttds)
# Chain of NHERF4_2, Q86UT5 (Q86UT5 220-308): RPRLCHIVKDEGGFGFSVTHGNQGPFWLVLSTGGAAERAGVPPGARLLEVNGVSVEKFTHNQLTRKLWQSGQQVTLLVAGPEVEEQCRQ
row,Binder,pKd
1,B1,below the threshold
2,B2,below the threshold

# Molecular target: PDZRN4_1, Q6ZMN7
# Assay: holdup assay
# Parameters: key: below the threshold = too weak to quantify, mostly under pKd 3.1 to 4
# Conditions: plain residues with an end cap or a label only (N-terminal biotin on a linker: ttds)
# Chain of PDZRN4_1, Q6ZMN7 (Q6ZMN7 213-318): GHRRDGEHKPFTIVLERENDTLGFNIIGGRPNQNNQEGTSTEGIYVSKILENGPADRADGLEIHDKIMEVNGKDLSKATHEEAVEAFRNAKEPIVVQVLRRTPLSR
row,Binder,pKd
1,B1,below the threshold
2,B2,4.9

# Molecular target: T7, PTPN13_1, Q12923
# T7 sequence (Q12923 1088-1188, limits assumed, looked up): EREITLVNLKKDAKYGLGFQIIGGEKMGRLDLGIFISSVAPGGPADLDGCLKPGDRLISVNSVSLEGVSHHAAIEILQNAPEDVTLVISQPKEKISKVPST
# Assay: holdup assay
# Parameters: key: below the threshold = too weak to quantify, mostly under pKd 3.1 to 4
# Conditions: plain residues with an end cap or a label only (N-terminal biotin on a linker: ttds)
row,Binder,pKd
1,B1,below the threshold
2,B2,below the threshold

# Molecular target: PTPN3, P26045
# Assay: holdup assay
# Parameters: key: below the threshold = too weak to quantify, mostly under pKd 3.1 to 4
# Conditions: plain residues with an end cap or a label only (N-terminal biotin on a linker: ttds)
# Chain of PTPN3, P26045 (P26045 505-587): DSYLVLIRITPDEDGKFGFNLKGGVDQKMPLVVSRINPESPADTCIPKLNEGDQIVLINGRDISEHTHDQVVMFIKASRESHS
row,Binder,pKd
1,B1,3.78
2,B2,5.26

# Molecular target: SCRIB_1, Q14160
# Assay: holdup assay
# Parameters: key: below the threshold = too weak to quantify, mostly under pKd 3.1 to 4
# Conditions: plain residues with an end cap or a label only (N-terminal biotin on a linker: ttds)
# Chain of SCRIB_1, Q14160 (Q14160 718-814): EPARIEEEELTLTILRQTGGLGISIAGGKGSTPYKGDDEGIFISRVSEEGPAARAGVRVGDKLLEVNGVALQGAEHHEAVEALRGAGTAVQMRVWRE
row,Binder,pKd
1,B1,5.04
2,B2,5.63

# Molecular target: SCRIB_2, Q14160
# Assay: holdup assay
# Parameters: key: below the threshold = too weak to quantify, mostly under pKd 3.1 to 4
# Conditions: plain residues with an end cap or a label only (N-terminal biotin on a linker: ttds)
# Chain of SCRIB_2, Q14160 (Q14160 857-960): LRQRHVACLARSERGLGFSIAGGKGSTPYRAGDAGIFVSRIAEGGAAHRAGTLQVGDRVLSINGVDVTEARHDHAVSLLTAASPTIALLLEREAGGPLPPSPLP
row,Binder,pKd
1,B1,3.51
2,B2,5.76

# Molecular target: SCRIB_3, Q14160
# Assay: holdup assay
# Parameters: key: below the threshold = too weak to quantify, mostly under pKd 3.1 to 4
# Conditions: plain residues with an end cap or a label only (N-terminal biotin on a linker: ttds)
# Chain of SCRIB_3, Q14160 (Q14160 999-1103): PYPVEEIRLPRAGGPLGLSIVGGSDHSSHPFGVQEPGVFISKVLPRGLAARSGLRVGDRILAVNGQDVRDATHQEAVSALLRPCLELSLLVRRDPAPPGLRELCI
row,Binder,pKd
1,B1,below the threshold
2,B2,5.34

# Molecular target: T8, SHANK1, Q9Y566
# T8 sequence (Q9Y566 658-767, limits assumed, looked up): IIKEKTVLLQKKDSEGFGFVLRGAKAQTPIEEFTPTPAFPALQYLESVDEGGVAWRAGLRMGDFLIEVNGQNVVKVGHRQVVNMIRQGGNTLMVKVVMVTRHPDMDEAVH
# Assay: holdup assay
# Parameters: key: below the threshold = too weak to quantify, mostly under pKd 3.1 to 4
# Conditions: plain residues with an end cap or a label only (N-terminal biotin on a linker: ttds)
row,Binder,pKd
1,B1,3.57
2,B2,below the threshold

# Molecular target: T9, SIPA1L2, Q9P2F8
# T9 sequence (Q9P2F8 945-1036, limits assumed, looked up): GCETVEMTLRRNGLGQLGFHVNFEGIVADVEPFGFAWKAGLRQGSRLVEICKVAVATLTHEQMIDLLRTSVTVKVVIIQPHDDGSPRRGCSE
# Assay: holdup assay
# Parameters: key: below the threshold = too weak to quantify, mostly under pKd 3.1 to 4
# Conditions: plain residues with an end cap or a label only (N-terminal biotin on a linker: ttds)
row,Binder,pKd
1,B1,below the threshold
2,B2,below the threshold

# Molecular target: T10, SNTG2, Q9NY99
# T10 sequence (Q9NY99 68-166, limits assumed, looked up): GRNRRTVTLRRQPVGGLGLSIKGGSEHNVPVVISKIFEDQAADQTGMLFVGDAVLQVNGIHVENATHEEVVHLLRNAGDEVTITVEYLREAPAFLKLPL
# Assay: holdup assay
# Parameters: key: below the threshold = too weak to quantify, mostly under pKd 3.1 to 4
# Conditions: plain residues with an end cap or a label only (N-terminal biotin on a linker: ttds)
row,Binder,pKd
1,B1,below the threshold
2,B2,4.12

# Molecular target: T11, SYNJ2BP, P57105
# T11 sequence (P57105 8-110, limits assumed, looked up): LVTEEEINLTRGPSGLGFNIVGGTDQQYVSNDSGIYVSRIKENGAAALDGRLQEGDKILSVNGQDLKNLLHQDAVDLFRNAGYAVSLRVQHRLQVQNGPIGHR
# Assay: holdup assay
# Parameters: key: below the threshold = too weak to quantify, mostly under pKd 3.1 to 4
# Conditions: plain residues with an end cap or a label only (N-terminal biotin on a linker: ttds)
row,Binder,pKd
1,B1,4.65
2,B2,6.04

# Molecular target: T12, TJP3_3, O95049
# T12 sequence (O95049 375-456, limits assumed, looked up): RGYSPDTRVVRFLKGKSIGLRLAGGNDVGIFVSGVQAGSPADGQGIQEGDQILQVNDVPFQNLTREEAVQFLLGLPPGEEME
# Assay: holdup assay
# Parameters: key: below the threshold = too weak to quantify, mostly under pKd 3.1 to 4
# Conditions: plain residues with an end cap or a label only (N-terminal biotin on a linker: ttds)
row,Binder,pKd
1,B1,below the threshold
2,B2,below the threshold

# From publication PMC9482650, “Quantitative fragmentomics allow affinity mapping of interactomes” (Nature Communications, 2022)
